The record followed here is IntAct's records for PubMed 21802063.

B1: Cell adhesion molecule-related/down-regulated by oncogenes (Rattus norvegicus (Rat)), O35158 (parent)
chain: MHPDLGPLWKLLYVLVILCSSVSSDLATYFISEPLSAVQKLGRPVVLHCSAKPVTARISWLHNGKRLDRNTEQIKIHRGTLTILSLNPSLSGCYQCVANNSVGAVVSGPATVSADALADFDSSTMHVITAEKKNTGFIGCRVPESNPKAEVRYKIRGKWLMYSTGNYIILPSGNLQILNVSSKDKGSYKCAAYNPVTSELKVEPAGRKLLVSRPSSDGFHILHPALSQALAVLPHSPVTLECVVSGVPASQVYWLKDGQDCLSGSNWRRLYSHLATASIDPADSGNYSCVVGNNSSGDVKHVTYTVNVLEHASISKGLHDQKVSLGATVRFTCEVHGNPAPNRTWFHNAQPIRPSSRHLTEGSVLKITGVIMEDSGLYQCMADNGIGFMQSTGRLQIEQDSGQRPVIVTAPANVEVTDGDFVTLSCNATGEPVPVIHWYGRHGLITSHPSQVLRSKSRKSHLFRPGDLDPEPVYLIMSQAGSSSLSIQAVTREHAGKYTCEAVNKHGSTQSEAFLTVVPFETNTKAEPVTPSEASQNDERDPRDGSESGLLNLFPVKVHSGGVELPAEKNASVPDAPNILSPPQTHMPDTYTLVWRTGRDGGMPINAYFVKYRKLDDGSGAVGSWHTVRVPGSESELHLTELEPSSLYEVLMVARSAVGEGQPAMLTFRTSKEKMASSKNTQASFPPVGIPKRPVTSEASNSNFGVVLTDSSRHSGVPEAPDRPTISMASETSVYVTWIPRANGGSPITAFKVEYKRMKSSDWLVAAEDIPPSKLSVEVRSLEPGSIYKFRVIVINHYGESFRSSASRPYQVAGFPNRFSNRPITGPHIAYTEAVSDTQIMLKWTYIPSSNNNTPIQGFYIYYRPTDSDNDSDYKRDVVEGSKQWHTIGHLQPETSYDIKMQCFNEGGESEFSNVMICETKVKRVPGASEYPMKELSTPPSSSGNGGNVGPATSPARSSDMLYLIVGCVLGVMVLILLVFIALCLWKSRQQSAIQKYDPPGYLYQGSEINGQMVEYTTLSGTARINGSVHGGFLSKGSLSNGCSHLHHKGPNGVNGILNGTINGGLYSAHTSSLTRTCVEFEHPHHLVNGGAVYTAVPQMDPLECINCRNCRNNNRCFTKTNSPLPVVPVVASYPQDGLEMKPLGVMKFPVCPVSTVPDGGQIPEECLKDSVAPAPTQRTCRQDNTSDINSDSTEDTAEFNRGDSSGHSEAEDKVFSWSPLILSPVLEDCSEKTAWSPPGPPLDGLSVVLQQAQET
partner: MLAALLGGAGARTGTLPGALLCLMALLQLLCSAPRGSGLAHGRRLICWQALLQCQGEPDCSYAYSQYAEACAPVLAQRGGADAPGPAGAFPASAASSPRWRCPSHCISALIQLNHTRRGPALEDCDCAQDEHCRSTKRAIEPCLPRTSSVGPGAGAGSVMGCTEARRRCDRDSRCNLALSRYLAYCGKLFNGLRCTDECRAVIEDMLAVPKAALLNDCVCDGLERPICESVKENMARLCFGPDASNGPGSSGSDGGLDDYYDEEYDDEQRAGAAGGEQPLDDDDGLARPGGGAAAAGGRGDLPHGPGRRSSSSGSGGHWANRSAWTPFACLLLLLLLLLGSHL
B2: Cell adhesion molecule-related/down-regulated by oncogenes (Rattus norvegicus (Rat)), O35158 (parent)
chain: B1 chain
partner: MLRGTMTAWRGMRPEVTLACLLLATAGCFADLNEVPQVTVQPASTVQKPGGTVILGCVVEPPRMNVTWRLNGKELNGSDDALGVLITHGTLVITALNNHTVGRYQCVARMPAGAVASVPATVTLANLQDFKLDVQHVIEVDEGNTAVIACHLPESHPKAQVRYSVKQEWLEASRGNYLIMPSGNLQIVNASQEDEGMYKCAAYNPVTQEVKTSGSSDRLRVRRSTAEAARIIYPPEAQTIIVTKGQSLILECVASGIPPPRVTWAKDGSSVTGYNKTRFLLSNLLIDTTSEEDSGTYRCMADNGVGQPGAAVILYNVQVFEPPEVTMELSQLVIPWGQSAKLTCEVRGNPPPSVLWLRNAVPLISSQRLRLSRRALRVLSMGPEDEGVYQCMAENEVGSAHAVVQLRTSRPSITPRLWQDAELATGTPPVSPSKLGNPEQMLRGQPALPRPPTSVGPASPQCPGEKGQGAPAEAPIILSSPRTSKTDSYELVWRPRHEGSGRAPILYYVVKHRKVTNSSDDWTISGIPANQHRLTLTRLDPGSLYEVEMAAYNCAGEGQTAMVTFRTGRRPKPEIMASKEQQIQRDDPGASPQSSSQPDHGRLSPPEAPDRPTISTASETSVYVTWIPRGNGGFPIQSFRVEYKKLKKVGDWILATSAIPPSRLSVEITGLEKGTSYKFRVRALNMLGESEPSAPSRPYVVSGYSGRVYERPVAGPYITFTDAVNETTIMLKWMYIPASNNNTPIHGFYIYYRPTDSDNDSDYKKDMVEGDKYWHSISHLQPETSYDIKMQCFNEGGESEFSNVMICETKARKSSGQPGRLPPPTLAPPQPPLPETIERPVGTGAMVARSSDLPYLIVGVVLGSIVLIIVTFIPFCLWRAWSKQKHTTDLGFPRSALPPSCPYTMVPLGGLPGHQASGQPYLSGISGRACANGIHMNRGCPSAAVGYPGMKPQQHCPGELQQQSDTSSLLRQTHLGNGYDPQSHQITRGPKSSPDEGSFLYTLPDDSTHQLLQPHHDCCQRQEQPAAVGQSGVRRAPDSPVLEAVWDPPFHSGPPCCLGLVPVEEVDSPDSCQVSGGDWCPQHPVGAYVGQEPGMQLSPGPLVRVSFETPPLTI
B3: Cell adhesion molecule-related/down-regulated by oncogenes (Rattus norvegicus (Rat)), O35158 (parent)
chain: B1 chain
partner: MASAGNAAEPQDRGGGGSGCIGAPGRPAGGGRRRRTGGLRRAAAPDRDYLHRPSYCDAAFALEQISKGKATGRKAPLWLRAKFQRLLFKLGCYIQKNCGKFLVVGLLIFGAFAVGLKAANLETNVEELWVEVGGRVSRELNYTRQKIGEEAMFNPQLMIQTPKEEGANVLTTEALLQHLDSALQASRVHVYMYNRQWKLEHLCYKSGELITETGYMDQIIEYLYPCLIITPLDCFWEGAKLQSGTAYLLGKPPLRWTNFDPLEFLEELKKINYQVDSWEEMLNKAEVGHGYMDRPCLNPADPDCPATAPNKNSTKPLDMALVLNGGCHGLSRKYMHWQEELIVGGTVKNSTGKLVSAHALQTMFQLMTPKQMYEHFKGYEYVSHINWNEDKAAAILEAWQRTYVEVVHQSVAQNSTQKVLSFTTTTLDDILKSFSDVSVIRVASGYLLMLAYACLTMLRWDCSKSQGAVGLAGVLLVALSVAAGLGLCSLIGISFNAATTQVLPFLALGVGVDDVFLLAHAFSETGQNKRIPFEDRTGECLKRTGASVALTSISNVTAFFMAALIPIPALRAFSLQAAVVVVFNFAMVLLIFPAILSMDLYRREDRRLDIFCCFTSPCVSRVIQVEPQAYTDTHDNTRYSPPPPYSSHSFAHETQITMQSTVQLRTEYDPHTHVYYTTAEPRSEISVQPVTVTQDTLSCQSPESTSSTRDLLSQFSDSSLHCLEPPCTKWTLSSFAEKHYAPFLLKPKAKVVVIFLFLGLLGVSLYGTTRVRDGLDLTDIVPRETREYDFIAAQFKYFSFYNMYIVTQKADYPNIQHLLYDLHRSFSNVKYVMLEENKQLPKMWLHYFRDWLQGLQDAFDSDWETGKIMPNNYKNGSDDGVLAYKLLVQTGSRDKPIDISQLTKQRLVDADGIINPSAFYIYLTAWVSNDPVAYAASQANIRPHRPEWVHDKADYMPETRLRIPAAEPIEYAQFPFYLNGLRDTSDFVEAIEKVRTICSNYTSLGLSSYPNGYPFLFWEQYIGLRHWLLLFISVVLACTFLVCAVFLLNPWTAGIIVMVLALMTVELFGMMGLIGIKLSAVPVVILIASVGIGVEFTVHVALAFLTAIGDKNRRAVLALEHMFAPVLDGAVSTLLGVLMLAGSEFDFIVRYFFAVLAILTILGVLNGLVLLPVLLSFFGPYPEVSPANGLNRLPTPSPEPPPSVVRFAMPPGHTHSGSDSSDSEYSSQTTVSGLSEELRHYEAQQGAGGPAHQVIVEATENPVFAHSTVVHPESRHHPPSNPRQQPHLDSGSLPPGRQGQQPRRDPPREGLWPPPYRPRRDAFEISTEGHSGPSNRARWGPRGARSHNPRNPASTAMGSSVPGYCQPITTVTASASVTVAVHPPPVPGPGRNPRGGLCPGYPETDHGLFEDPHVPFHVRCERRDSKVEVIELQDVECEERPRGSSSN

The variants in one experiment derive from B1. The conditions noted are these: with gas1_mouse Gas1, Q01721.
In the case of I787A, the “effect of a mutation on the interaction” value was “decreasing interaction strength”.
Still for that read-out and setting: with V777E the entry was “with no effect”.
On the same count and under the same terms, with P686A the entry was “decreasing interaction strength”.
Consider S937R, for which the “effect of a mutation on the interaction” value was “decreasing interaction strength”.
With V688M, the “effect of a mutation on the interaction” value was “with no effect”.
Turning to T681S, the “effect of a mutation on the interaction” value is “with no effect”.

Variants of B2 are the subject of the next experiment. The conditions noted are these: with boc_human BOC.
As to V688M, the “effect of a mutation on the interaction” value was “with no effect”.
Still for that read-out and setting: the entry for I787A is “with no effect”; for P686A it is “decreasing interaction strength”.
For V777E, the “effect of a mutation on the interaction” value is reported as “with no effect”.
S937R: the “effect of a mutation on the interaction” value is “with no effect”.
Consider T681S, for which the “effect of a mutation on the interaction” value is given as “with no effect”.

A further experiment covers variants of B3. The following applies: with ptc1_human PTCH1, Q13635.
Consider I787A, for which the “effect of a mutation on the interaction” value is “decreasing interaction strength”.
The same measure, in the same setting: the entry for V777E is “decreasing interaction strength”.
Take V688M: the “effect of a mutation on the interaction” value is on record as “decreasing interaction strength”.
For the variant T681S, the “effect of a mutation on the interaction” value is “with no effect”.
Still for that read-out and setting: with S937R the entry was “decreasing interaction strength”; with P686A, “decreasing interaction strength”.
